The record followed here is publication PMC3176292, “Mutations in Protein-Binding Hot-Spots on the Hub Protein Smad3 Differentially Affect Its Protein Interactions and Smad3-Regulated Gene Expression” (PLoS ONE, 2011).

Common to all, as to assay: co-IP; LUMIER: Renilla luciferase-Smad3 and Flag-tagged partner co-expressed with constitutively active Alk5 in HEK-293; Flag protein captured from cleared lysate (TNE: 10 mM Tris-HCl pH 7.8, 150 mM NaCl, 1 mM EDTA, 1% Igepal CA-630) on anti-Flag 96-well plates, 2 h at 4 °C; co-precipitated Renilla luciferase activity, TrxGA background subtracted, percent of wild-type Smad3
Common to all, as to conditions: partners not purified

For assay [1], the target named is T1, Smurf2 Smad-binding domain (amino acids 252–330) on the Flag-thioredoxin scaffold (UniProt Q9HAU4 252-330).
T1 construct: Smurf2, amino acids 252–330; also called Smurf2 aa252–330; TrxSmurf2; source: HEK-293, transfected, in lysate
T1 sequence (Q9HAU4 252-330): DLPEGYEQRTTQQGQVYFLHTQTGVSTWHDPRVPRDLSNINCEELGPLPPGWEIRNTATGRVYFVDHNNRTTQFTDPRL

Assay [2] deals with T2, Flag-SkiW274E, full length (UniProt P12755 1-728, W274E).
T2 construct: plasmid pCMV5b-Flag-SkiW274E (from K. Luo); also called SkiW274E FL; SKI274E; source: HEK-293, transfected, in lysate
T2 sequence (looked up): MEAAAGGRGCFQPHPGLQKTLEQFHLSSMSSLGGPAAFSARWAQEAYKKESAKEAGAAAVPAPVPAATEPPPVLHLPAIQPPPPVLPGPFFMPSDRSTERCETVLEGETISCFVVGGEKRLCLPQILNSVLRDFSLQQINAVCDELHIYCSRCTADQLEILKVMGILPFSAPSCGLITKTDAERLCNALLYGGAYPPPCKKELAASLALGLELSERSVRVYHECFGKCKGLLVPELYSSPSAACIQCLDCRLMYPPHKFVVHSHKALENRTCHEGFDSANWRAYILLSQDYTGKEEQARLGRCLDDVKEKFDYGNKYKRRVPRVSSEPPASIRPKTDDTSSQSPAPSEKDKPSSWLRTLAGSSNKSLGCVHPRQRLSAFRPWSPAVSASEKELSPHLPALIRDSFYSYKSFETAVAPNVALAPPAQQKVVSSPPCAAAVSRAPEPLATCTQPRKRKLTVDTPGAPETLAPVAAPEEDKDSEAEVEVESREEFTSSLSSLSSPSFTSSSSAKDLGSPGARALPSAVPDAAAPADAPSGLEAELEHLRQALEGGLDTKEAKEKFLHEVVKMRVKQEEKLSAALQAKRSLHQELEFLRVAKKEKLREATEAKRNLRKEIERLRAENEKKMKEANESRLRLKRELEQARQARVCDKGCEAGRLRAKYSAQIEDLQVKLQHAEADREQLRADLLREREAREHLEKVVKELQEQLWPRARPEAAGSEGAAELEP

Assay [3] concerns the target T3, SARA Smad-binding domain (amino acids 665–721) on the 3xFlag-thioredoxin scaffold (UniProt O95405 767-823).
T3 construct: SARA, amino acids 665–721; cloned into the unique RsrII site of pCI-3xFLAG-Trx; also called SARA aa665–721; TrxSARA; source: HEK-293, transfected, in lysate
T3 sequence (looked up): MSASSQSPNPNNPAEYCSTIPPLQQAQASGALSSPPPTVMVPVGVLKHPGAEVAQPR

Assay [4] has as its target T4, Flag-Smad4, full length (UniProt Q13485 1-552).
T4 construct: Smad4; plasmid pCMV5-Flag-Smad4 (from J. Massagué); also called Smad4 FL; source: HEK-293, transfected, in lysate
T4 sequence (looked up): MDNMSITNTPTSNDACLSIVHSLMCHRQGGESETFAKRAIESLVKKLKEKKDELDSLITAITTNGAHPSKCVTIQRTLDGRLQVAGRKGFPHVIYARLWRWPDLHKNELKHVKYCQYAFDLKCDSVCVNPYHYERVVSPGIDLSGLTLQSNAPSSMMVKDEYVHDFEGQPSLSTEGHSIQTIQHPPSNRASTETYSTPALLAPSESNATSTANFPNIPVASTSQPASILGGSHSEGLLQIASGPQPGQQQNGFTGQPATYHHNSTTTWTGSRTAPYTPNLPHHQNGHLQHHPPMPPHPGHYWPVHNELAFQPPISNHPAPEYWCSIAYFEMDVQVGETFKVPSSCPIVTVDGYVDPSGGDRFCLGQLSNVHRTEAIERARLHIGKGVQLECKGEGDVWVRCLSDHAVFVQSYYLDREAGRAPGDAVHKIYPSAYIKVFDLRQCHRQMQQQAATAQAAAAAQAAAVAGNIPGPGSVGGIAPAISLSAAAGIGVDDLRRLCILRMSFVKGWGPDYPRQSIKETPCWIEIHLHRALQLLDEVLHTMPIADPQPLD

B1: Renilla luciferase-Smad3 Q322A/Y324A (natural protein, UniProt P84022 1-425, looked up)
chain: MSSILPFTPPIVKRLLGWKKGEQNGQEEKWCEKAVKSLVKKLKKTGQLDELEKAITTQNVNTKCITIPRSLDGRLQVSHRKGLPHVIYCRLWRWPDLHSHHELRAMELCEFAFNMKKDEVCVNPYHYQRVETPVLPPVLVPRHTEIPAEFPPLDDYSHSIPENTNFPAGIEPQSNIPETPPPGYLSEDGETSDHQMNHSMDAGSPNLSPNPMSPAHNNLDLQPVTYCEPAFWCSISYYELNQRVGETFHASQPSMTVDGFTDPSNSERFCLGLLSNVNRNAAVELTRRHIGRGVRLYYIGGEVFAECLSDSAIFVQSPNCNARAGWHPATVCKIPPGCNLKIFNNQEFAALLAQSVNQGFEAVYQLTRMCTIRMSFVKGWGAEYRRQTVTSTPCWIELHLNGPLQWLDKVLTQMGSPSIRCSSVS
notes: Smad3; source: HEK-293, transfected together with constitutively active Alk5, in lysate
Consider B1, for which the “percent binding relative to wild-type Smad3” value in assay [1] was determined as 308%; in assay [2], 100%; in assay [3], 3%; in assay [4], 124%.

B2: Renilla luciferase-Smad3 W406A (natural protein, UniProt P84022 1-425, looked up)
chain: MSSILPFTPPIVKRLLGWKKGEQNGQEEKWCEKAVKSLVKKLKKTGQLDELEKAITTQNVNTKCITIPRSLDGRLQVSHRKGLPHVIYCRLWRWPDLHSHHELRAMELCEFAFNMKKDEVCVNPYHYQRVETPVLPPVLVPRHTEIPAEFPPLDDYSHSIPENTNFPAGIEPQSNIPETPPPGYLSEDGETSDHQMNHSMDAGSPNLSPNPMSPAHNNLDLQPVTYCEPAFWCSISYYELNQRVGETFHASQPSMTVDGFTDPSNSERFCLGLLSNVNRNAAVELTRRHIGRGVRLYYIGGEVFAECLSDSAIFVQSPNCNQRYGWHPATVCKIPPGCNLKIFNNQEFAALLAQSVNQGFEAVYQLTRMCTIRMSFVKGWGAEYRRQTVTSTPCWIELHLNGPLQALDKVLTQMGSPSIRCSSVS
notes: as for B1
With B2, the “percent binding relative to wild-type Smad3” value was 1330% in assay [1], 21% in assay [2], 1% in assay [3] and 109% in assay [4].

B3: Renilla luciferase-Smad3 W326A (natural protein, UniProt P84022 1-425, looked up)
chain: MSSILPFTPPIVKRLLGWKKGEQNGQEEKWCEKAVKSLVKKLKKTGQLDELEKAITTQNVNTKCITIPRSLDGRLQVSHRKGLPHVIYCRLWRWPDLHSHHELRAMELCEFAFNMKKDEVCVNPYHYQRVETPVLPPVLVPRHTEIPAEFPPLDDYSHSIPENTNFPAGIEPQSNIPETPPPGYLSEDGETSDHQMNHSMDAGSPNLSPNPMSPAHNNLDLQPVTYCEPAFWCSISYYELNQRVGETFHASQPSMTVDGFTDPSNSERFCLGLLSNVNRNAAVELTRRHIGRGVRLYYIGGEVFAECLSDSAIFVQSPNCNQRYGAHPATVCKIPPGCNLKIFNNQEFAALLAQSVNQGFEAVYQLTRMCTIRMSFVKGWGAEYRRQTVTSTPCWIELHLNGPLQWLDKVLTQMGSPSIRCSSVS
notes: as for B1
In the case of B3, the “percent binding relative to wild-type Smad3” value in assay [1] came to 653%; in assay [2], 88%; in assay [3] it was 4%; in assay [4], 194%.

B4: Renilla luciferase-Smad3 V356R (natural protein, UniProt P84022 1-425, looked up)
chain: MSSILPFTPPIVKRLLGWKKGEQNGQEEKWCEKAVKSLVKKLKKTGQLDELEKAITTQNVNTKCITIPRSLDGRLQVSHRKGLPHVIYCRLWRWPDLHSHHELRAMELCEFAFNMKKDEVCVNPYHYQRVETPVLPPVLVPRHTEIPAEFPPLDDYSHSIPENTNFPAGIEPQSNIPETPPPGYLSEDGETSDHQMNHSMDAGSPNLSPNPMSPAHNNLDLQPVTYCEPAFWCSISYYELNQRVGETFHASQPSMTVDGFTDPSNSERFCLGLLSNVNRNAAVELTRRHIGRGVRLYYIGGEVFAECLSDSAIFVQSPNCNQRYGWHPATVCKIPPGCNLKIFNNQEFAALLAQSRNQGFEAVYQLTRMCTIRMSFVKGWGAEYRRQTVTSTPCWIELHLNGPLQWLDKVLTQMGSPSIRCSSVS
notes: as for B1
Regarding B4, the “percent binding relative to wild-type Smad3” value was determined as 468% in assay [1], 30% in assay [2], 1% in assay [3] and 233% in assay [4].

B5: Renilla luciferase-Smad3 V224A (natural protein, UniProt P84022 1-425, looked up)
chain: MSSILPFTPPIVKRLLGWKKGEQNGQEEKWCEKAVKSLVKKLKKTGQLDELEKAITTQNVNTKCITIPRSLDGRLQVSHRKGLPHVIYCRLWRWPDLHSHHELRAMELCEFAFNMKKDEVCVNPYHYQRVETPVLPPVLVPRHTEIPAEFPPLDDYSHSIPENTNFPAGIEPQSNIPETPPPGYLSEDGETSDHQMNHSMDAGSPNLSPNPMSPAHNNLDLQPATYCEPAFWCSISYYELNQRVGETFHASQPSMTVDGFTDPSNSERFCLGLLSNVNRNAAVELTRRHIGRGVRLYYIGGEVFAECLSDSAIFVQSPNCNQRYGWHPATVCKIPPGCNLKIFNNQEFAALLAQSVNQGFEAVYQLTRMCTIRMSFVKGWGAEYRRQTVTSTPCWIELHLNGPLQWLDKVLTQMGSPSIRCSSVS
notes: as for B1
Consider B5, for which the “percent binding relative to wild-type Smad3” value in assay [1] came to 320%; in assay [2], 212%; in assay [3], 21%; in assay [4], 122%.

B6: Renilla luciferase-Smad3 S254A (natural protein, UniProt P84022 1-425, looked up)
chain: MSSILPFTPPIVKRLLGWKKGEQNGQEEKWCEKAVKSLVKKLKKTGQLDELEKAITTQNVNTKCITIPRSLDGRLQVSHRKGLPHVIYCRLWRWPDLHSHHELRAMELCEFAFNMKKDEVCVNPYHYQRVETPVLPPVLVPRHTEIPAEFPPLDDYSHSIPENTNFPAGIEPQSNIPETPPPGYLSEDGETSDHQMNHSMDAGSPNLSPNPMSPAHNNLDLQPVTYCEPAFWCSISYYELNQRVGETFHASQPAMTVDGFTDPSNSERFCLGLLSNVNRNAAVELTRRHIGRGVRLYYIGGEVFAECLSDSAIFVQSPNCNQRYGWHPATVCKIPPGCNLKIFNNQEFAALLAQSVNQGFEAVYQLTRMCTIRMSFVKGWGAEYRRQTVTSTPCWIELHLNGPLQWLDKVLTQMGSPSIRCSSVS
notes: as for B1
For the molecule B6, the “percent binding relative to wild-type Smad3” value in assay [1] worked out at 113%; in assay [2] it was 78%; in assay [3] it was 103%; in assay [4], 101%.
